The text below walks through data of PMC12416549 (2024).

To fix the notation:
T1: TNFR1 (Homo sapiens, UniProt P19438)
T1 chain: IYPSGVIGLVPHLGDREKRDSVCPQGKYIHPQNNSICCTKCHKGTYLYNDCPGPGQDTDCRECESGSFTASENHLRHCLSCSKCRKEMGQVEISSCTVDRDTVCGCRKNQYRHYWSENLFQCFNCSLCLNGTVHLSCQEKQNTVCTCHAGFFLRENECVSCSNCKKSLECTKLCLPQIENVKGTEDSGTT

B1: A69H (designed binder)
chain: MTLQELLREEALRRAEAEAFRYALELLAEKFPEQKEYLLDLAEEIESQIRSLSGVDVEDVRKFLDKEWHWVKELLAEHPAELAEVEAARAARLAELRAEVEAKVAA
B2: V100T (designed binder)
chain: MTLQELLREEALRRAEAEAFRYALELLAEKFPEQKEYLLDLAEEIESQIRSLSGVDVEDVRKFLDKEWAWVKELLAEHPAELAEVEAARAARLAELRAETEAKVAA
B3: A88E (designed binder)
chain: MTLQELLREEALRRAEAEAFRYALELLAEKFPEQKEYLLDLAEEIESQIRSLSGVDVEDVRKFLDKEWAWVKELLAEHPAELAEVEAERAARLAELRAEVEAKVAA
B4: R50Y (designed binder)
chain: MTLQELLREEALRRAEAEAFRYALELLAEKFPEQKEYLLDLAEEIESQIYSLSGVDVEDVRKFLDKEWAWVKELLAEHPAELAEVEAARAARLAELRAEVEAKVAA
B5: L7G (designed binder)
chain: MTLQELGREEALRRAEAEAFRYALELLAEKFPEQKEYLLDLAEEIESQIRSLSGVDVEDVRKFLDKEWAWVKELLAEHPAELAEVEAARAARLAELRAEVEAKVAA
B6: E29L (designed binder)
chain: MTLQELLREEALRRAEAEAFRYALELLALKFPEQKEYLLDLAEEIESQIRSLSGVDVEDVRKFLDKEWAWVKELLAEHPAELAEVEAARAARLAELRAEVEAKVAA
B7: V57L (designed binder)
chain: MTLQELLREEALRRAEAEAFRYALELLAEKFPEQKEYLLDLAEEIESQIRSLSGVDLEDVRKFLDKEWAWVKELLAEHPAELAEVEAARAARLAELRAEVEAKVAA
B8: E5S (designed binder)
chain: MTLQSLLREEALRRAEAEAFRYALELLAEKFPEQKEYLLDLAEEIESQIRSLSGVDVEDVRKFLDKEWAWVKELLAEHPAELAEVEAARAARLAELRAEVEAKVAA
B9: A23T (designed binder)
chain: MTLQELLREEALRRAEAEAFRYTLELLAEKFPEQKEYLLDLAEEIESQIRSLSGVDVEDVRKFLDKEWAWVKELLAEHPAELAEVEAARAARLAELRAEVEAKVAA
B10: K72S (designed binder)
chain: MTLQELLREEALRRAEAEAFRYALELLAEKFPEQKEYLLDLAEEIESQIRSLSGVDVEDVRKFLDKEWAWVSELLAEHPAELAEVEAARAARLAELRAEVEAKVAA
B11: L75D (designed binder)
chain: MTLQELLREEALRRAEAEAFRYALELLAEKFPEQKEYLLDLAEEIESQIRSLSGVDVEDVRKFLDKEWAWVKELDAEHPAELAEVEAARAARLAELRAEVEAKVAA
B12: R8F (designed binder)
chain: MTLQELLFEEALRRAEAEAFRYALELLAEKFPEQKEYLLDLAEEIESQIRSLSGVDVEDVRKFLDKEWAWVKELLAEHPAELAEVEAARAARLAELRAEVEAKVAA
B13: L96P (designed binder)
chain: MTLQELLREEALRRAEAEAFRYALELLAEKFPEQKEYLLDLAEEIESQIRSLSGVDVEDVRKFLDKEWAWVKELLAEHPAELAEVEAARAARLAEPRAEVEAKVAA
B14: L74W (designed binder)
chain: MTLQELLREEALRRAEAEAFRYALELLAEKFPEQKEYLLDLAEEIESQIRSLSGVDVEDVRKFLDKEWAWVKEWLAEHPAELAEVEAARAARLAELRAEVEAKVAA
B15: E36A (designed binder)
chain: MTLQELLREEALRRAEAEAFRYALELLAEKFPEQKAYLLDLAEEIESQIRSLSGVDVEDVRKFLDKEWAWVKELLAEHPAELAEVEAARAARLAELRAEVEAKVAA
B16: R13L (designed binder)
chain: MTLQELLREEALLRAEAEAFRYALELLAEKFPEQKEYLLDLAEEIESQIRSLSGVDVEDVRKFLDKEWAWVKELLAEHPAELAEVEAARAARLAELRAEVEAKVAA
B17: E46C (designed binder)
chain: MTLQELLREEALRRAEAEAFRYALELLAEKFPEQKEYLLDLAEEICSQIRSLSGVDVEDVRKFLDKEWAWVKELLAEHPAELAEVEAARAARLAELRAEVEAKVAA
B18: K30Y (designed binder)
chain: MTLQELLREEALRRAEAEAFRYALELLAEYFPEQKEYLLDLAEEIESQIRSLSGVDVEDVRKFLDKEWAWVKELLAEHPAELAEVEAARAARLAELRAEVEAKVAA
B19: E46F (designed binder)
chain: MTLQELLREEALRRAEAEAFRYALELLAEKFPEQKEYLLDLAEEIFSQIRSLSGVDVEDVRKFLDKEWAWVKELLAEHPAELAEVEAARAARLAELRAEVEAKVAA
B20: R50M (designed binder)
chain: MTLQELLREEALRRAEAEAFRYALELLAEKFPEQKEYLLDLAEEIESQIMSLSGVDVEDVRKFLDKEWAWVKELLAEHPAELAEVEAARAARLAELRAEVEAKVAA
B21: L27T (designed binder)
chain: MTLQELLREEALRRAEAEAFRYALELTAEKFPEQKEYLLDLAEEIESQIRSLSGVDVEDVRKFLDKEWAWVKELLAEHPAELAEVEAARAARLAELRAEVEAKVAA
B22: L26A (designed binder)
chain: MTLQELLREEALRRAEAEAFRYALEALAEKFPEQKEYLLDLAEEIESQIRSLSGVDVEDVRKFLDKEWAWVKELLAEHPAELAEVEAARAARLAELRAEVEAKVAA
B23: L38Y (designed binder)
chain: MTLQELLREEALRRAEAEAFRYALELLAEKFPEQKEYYLDLAEEIESQIRSLSGVDVEDVRKFLDKEWAWVKELLAEHPAELAEVEAARAARLAELRAEVEAKVAA
B24: R14M (designed binder)
chain: MTLQELLREEALRMAEAEAFRYALELLAEKFPEQKEYLLDLAEEIESQIRSLSGVDVEDVRKFLDKEWAWVKELLAEHPAELAEVEAARAARLAELRAEVEAKVAA
B25: K35W (designed binder)
chain: MTLQELLREEALRRAEAEAFRYALELLAEKFPEQWEYLLDLAEEIESQIRSLSGVDVEDVRKFLDKEWAWVKELLAEHPAELAEVEAARAARLAELRAEVEAKVAA

For the assay, the target named is T1, TNFR1. The assay can be described thus: yeast display SC50.
In the case of B1, the “apparent Kd (screen)” value was 0.869 nM.

Take B2: the “apparent Kd (screen)” value came to 0.49 nM.

Consider B3, for which the “apparent Kd (screen)” value turned out to be 0.49 nM.

With B4, the “apparent Kd (screen)” value came to 0.539 nM.

As to B5, the “apparent Kd (screen)” value turned out to be 16.7 nM.

In the case of B6, the “apparent Kd (screen)” value came to 0.539 nM.

As to B7, the “apparent Kd (screen)” value worked out at 0.539 nM.

For B8, the “apparent Kd (screen)” value was determined as 0.49 nM.

As for B9, the “apparent Kd (screen)” value turned out to be 0.539 nM.

On to B10, for which the “apparent Kd (screen)” value came out at 0.49 nM.

For the molecule B11, the “apparent Kd (screen)” value came out at 0.539 nM.

For the molecule B12, the “apparent Kd (screen)” value stood at 0.49 nM.

With B13, the “apparent Kd (screen)” value amounted to 0.49 nM.

With B14, the “apparent Kd (screen)” value worked out at 0.189 nM.

As to B15, the “apparent Kd (screen)” value was 0.49 nM.

Consider B16, for which the “apparent Kd (screen)” value was 0.49 nM.

On to B17, for which the “apparent Kd (screen)” value was 0.304 nM.

As for B18, the “apparent Kd (screen)” value was 0.539 nM.

Take B19: the “apparent Kd (screen)” value was 0.49 nM.

B20: the “apparent Kd (screen)” value came out at 0.593 nM.

For the molecule B21, the “apparent Kd (screen)” value came out at 0.539 nM.

B22: the “apparent Kd (screen)” value worked out at 0.718 nM.

As to B23, the “apparent Kd (screen)” value came out at 0.79 nM.

As for B24, the “apparent Kd (screen)” value was 0.718 nM.

With B25, the “apparent Kd (screen)” value turned out to be 0.593 nM.
